Laboratory results from the supplement of paper PMC7125110.
± gives the standard error. For some of these results: Variants at the floor of the assay were thinned out.

B1: glmS ribozyme (parent)
chain: AUAAAAGCGCCAGAACUACAGAAAUGUAGUUGACGAGGAGGAGGUUUAUCGAAUUUUCGGCGGAUGCCUCCAAA

Experiments:
Settings in all cases: with glucosamine-6-phosphate
[1] = variants of: B1; assay: kcat; higher = faster cleavage; RNA array
Summary of the method: (§1)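 Glucosamine-6-phosphate in HEPES/KCl/Mg(OAc)2 buffer, at 40 μM to 10 mM, was flowed over barcoded ribozyme variants transcribed in situ by E. coli RNA polymerase on sequenced MiSeq chips. Tracking was through a hybridised Cy3 probe at 37 °C. kobs, kcat and KM came from exponential decay fits and weighted Michaelis–Menten fits of normalised per-tile medians.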

[2] = variants of: B1; assay: KM; higher = weaker cofactor use; RNA array
Summary of the method: as §1

[3] = variants of: B1; assay: self-cleavage kobs at 40 uM GlcN6P; higher = faster cleavage; RNA array
Summary of the method: as §1

[4] = variants of: B1; assay: self-cleavage kobs at 160 uM GlcN6P; higher = faster cleavage; RNA array
Summary of the method: as §1

[5] = variants of: B1; assay: self-cleavage kobs at 640 uM GlcN6P; higher = faster cleavage; RNA array
Summary of the method: as §1

[6] = variants of: B1; assay: self-cleavage kobs at 2500 uM GlcN6P; higher = faster cleavage; RNA array
Summary of the method: as §1

[7] = variants of: B1; assay: self-cleavage kobs at 10000 uM GlcN6P; higher = faster cleavage; RNA array
Summary of the method: as §1

Variant | kcat [1] [s⁻¹] | KM [2] [µM] | self-cleavage kobs at 40 uM GlcN6P [3] [s⁻¹] | self-cleavage kobs at 160 uM GlcN6P [4] [s⁻¹] | self-cleavage kobs at 640 uM GlcN6P [5] [s⁻¹] | self-cleavage kobs at 2500 uM GlcN6P [6] [s⁻¹] | self-cleavage kobs at 10000 uM GlcN6P [7] [s⁻¹]
G38A C58G C70U | 1.98e-05 ± 8.1e-06 | – | – | – | – | – | –
G43A C67A | 0.00175 ± 0.00022 | 976 ± 200 | 7.15e-05 ± 1.3e-05 | 0.000242 ± 6.6e-05 | 0.000611 ± 0.00013 | 0.00156 ± 0.00025 | 0.00147 ± 0.00026
A6G A15U | 7.69e-05 ± 9.2e-06 | – | < 1e-05 | – | 2.52e-05 ± 1e-05 | 7.01e-05 ± 1.2e-05 | 6.82e-05 ± 6.2e-06
U31C G44U C67G | 0.00162 ± 0.00031 | 2430 ± 830 | – | – | 0.00032 ± 7.1e-05 | 0.0011 ± 0.00027 | 0.00124 ± 0.00024
A33U U56A | 3.49e-05 ± 1.6e-05 | – | – | – | – | – | –
A14C C67A | 0.00149 ± 0.00032 | 1850 ± 600 | 3.89e-05 ± 9.3e-06 | 0.000145 ± 2.4e-05 | 0.000337 ± 4.4e-05 | 0.00079 ± 0.00013 | 0.00146 ± 0.00024
A53G C58G | 0.000112 ± 2.4e-06 | 1580 ± 120 | – | – | 3.28e-05 ± 1.1e-05 | 6.79e-05 ± 1.2e-05 | 9.67e-05 ± 9.9e-06
A42U U54G | 0.000246 ± 1e-05 | 736 ± 110 | – | – | 0.000117 ± 2e-05 | 0.000201 ± 3.1e-05 | 0.000226 ± 2.1e-05
U55C A64G | 0.000719 ± 0.00011 | 1350 ± 370 | 4.14e-05 ± 1.2e-05 | 6.7e-05 ± 1e-05 | 0.000233 ± 3e-05 | 0.000568 ± 7e-05 | 0.000595 ± 6.1e-05
G29A U56G | 0.00237 ± 0.00067 | 1720 ± 760 | 6.78e-05 ± 1.3e-05 | – | 0.000577 ± 9.1e-05 | 0.00129 ± 0.00021 | 0.00257 ± 0.00053
C50A C58U | 1.33e-05 ± 5.8e-06 | – | – | – | < 1e-05 | – | –
G40C C67A | 0.000136 ± 2.4e-05 | – | – | – | 6.63e-05 ± 1.2e-05 | 0.000181 ± 2.9e-05 | 0.000119 ± 1.3e-05
G13U G66U | 3.6e-05 ± 2.5e-06 | 3580 ± 630 | – | – | – | – | 2.65e-05 ± 1.1e-05
G44A U54G | 0.000522 ± 0.00012 | – | – | – | 0.000231 ± 7.3e-05 | 0.000634 ± 0.00013 | 0.000438 ± 6.2e-05
G44A U45A | 0.00079 ± 0.0001 | 3190 ± 750 | – | – | 0.000128 ± 4.2e-05 | 0.000439 ± 0.00012 | 0.000579 ± 0.0001
A15G U49A | 1.35e-05 ± 1.2e-06 | 1230 ± 550 | – | < 1e-05 | – | – | –
A14C C70G | 0.00014 ± 1.4e-05 | 866 ± 250 | – | 3.24e-05 ± 1.3e-05 | 5.83e-05 ± 7.3e-06 | 9.83e-05 ± 1.1e-05 | 0.000134 ± 1.3e-05

Variant | kcat [1] [s⁻¹] | KM [2] [µM] | self-cleavage kobs at 40 uM GlcN6P [3] [s⁻¹] | self-cleavage kobs at 160 uM GlcN6P [4] [s⁻¹] | self-cleavage kobs at 640 uM GlcN6P [5] [s⁻¹] | self-cleavage kobs at 2500 uM GlcN6P [6] [s⁻¹] | self-cleavage kobs at 10000 uM GlcN6P [7] [s⁻¹]
G41C C70A | 0.000866 ± 0.00015 | 762 ± 230 | 5.77e-05 ± 8.1e-06 | 0.000116 ± 2.1e-05 | 0.000392 ± 6.6e-05 | 0.00078 ± 0.00012 | 0.000775 ± 9.6e-05
A48U G51A | 1.23e-05 ± 5.9e-06 | – | < 1e-05 | – | – | – | < 1e-05
A15G C34G | < 1e-05 | – | < 1e-05 | – | < 1e-05 | – | –
A12U U56G | 0.0516 ± 0.013 | 1320 ± 390 | 0.00172 ± 0.0002 | 0.00468 ± 0.00073 | 0.0197 ± 0.0057 | – | 0.0461 ± 0.011
G13A U65A | 0.000116 ± 3.9e-05 | – | < 1e-05 | – | – | 2.1e-05 ± 9.1e-06 | 5.81e-05 ± 8.7e-06
C8U C71U | < 1e-05 | 25 ± 11 | – | – | < 1e-05 | – | –
C58G G63C | < 1e-05 | – | < 1e-05 | – | – | < 1e-05 | –
A42G U54C | 0.0476 ± 0.013 | 3020 ± 1100 | 0.000795 ± 0.00016 | 0.00208 ± 0.001 | 0.0066 ± 0.0019 | – | 0.0394 ± 0.008
A15G U69A | 0.000201 ± 4.3e-05 | – | 6.42e-05 ± 9.6e-06 | 0.000145 ± 1.7e-05 | 0.000137 ± 1.8e-05 | 0.000264 ± 5.2e-05 | 0.000312 ± 4.6e-05
C11A G51U U65C C68U | 3.35e-05 ± 9e-06 | – | – | – | – | – | –
U45A A52C | 6.93e-05 ± 3e-05 | – | – | < 1e-05 | – | 0.000121 ± 3.4e-05 | 5.55e-05 ± 1.5e-05
C58A C70G | 5.06e-05 ± 4.7e-06 | 91.6 ± 44 | – | 3.59e-05 ± 1.2e-05 | 3.65e-05 ± 1.3e-05 | 5.19e-05 ± 1.1e-05 | –
A14U G41C | 8.09e-05 ± 1.1e-06 | 2290 ± 95 | – | – | – | 4.2e-05 ± 1.3e-05 | 6.58e-05 ± 1.4e-05
C50A G60C | 1.48e-05 ± 7e-06 | – | – | – | – | – | –
C50G G62U U69G | 8.66e-05 ± 2.1e-05 | – | 3.4e-05 ± 1.2e-05 | 0.000155 ± 4.5e-05 | 7.83e-05 ± 2.3e-05 | 0.000155 ± 4.7e-05 | 7.41e-05 ± 1.6e-05
U47G U56G | 0.00559 ± 0.00071 | 1560 ± 280 | 0.000148 ± 2.2e-05 | 0.000523 ± 0.00015 | 0.00151 ± 0.00034 | 0.00299 ± 0.00058 | 0.00556 ± 0.00097
